Laboratory results published in the supplement of paper PMC12042874.
± gives the uncertainty stated by the source.

Experiment: amyloid nucleation score (Sup35N fusion, yeast selection) (log enrichment); library NNK3; higher = more nucleation; inactive = no reads after selection
How it was run: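 For the nucleation score, DiMSum gave the log enrichment of output over input reads, centred on the mode score of non-aggregating sequences. Psi-negative yeast expressing Sup35N fused to peptides of 20 random codons were induced with 100 μM copper sulfate for 24 hours and grown 7 days at 30°C on medium lacking adenine and uracil. Input and output plasmid inserts were Illumina-sequenced, and sequences with under 100 input reads were excluded.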

Row | Substance | amyloid nucleation score
1 | AACNIN | inactive
2 | ACAGMDCKGYMFLWSFGRAW | inactive
3 | ACESCSFTSWRTYLCSKVRT | -0.172 ± 1.5
4 | ACGCYVSEIPWLRDRIKFWQ | inactive
5 | ACGGCHYKRAYMQLGLMRLK | inactive
6 | ACIYYHTASCKRCQQAIESE | inactive
7 | ACRYDLSKKPNASWARAEG | -0.272 ± 0.37
8 | ACSLAFLHICHRHF | 0.712 ± 0.39
9 | ACSYVGTKMLPGANLRDKPW | -0.387 ± 1.5
10 | ADMCWTNRSETYDGELTVGV | inactive
11 | ADVLLMRDRAFRRGSWRMAR | inactive
12 | AEIKMLLLQIHDS | 0.078 ± 0.23
13 | AEYLMEQAGTMC | inactive
14 | AFDYLVV | inactive
15 | AFKLYWKYCRYNPWVRNR | inactive
16 | AFQLVHSWSFVGGTRALAVT | inactive
17 | AFWSH | inactive
18 | AFYFNEMYRLVLMGTM | inactive
19 | AGESEISVRMEKSHSGVASR | -0.436 ± 1.7
20 | AGHYLLSPGYQMMLERSNRS | inactive
21 | AGLPLV | inactive
22 | AGVWWVCRRGVFFALMLM | inactive
23 | AGWGLLQSCRRFWEWCG | inactive

Row | Substance | amyloid nucleation score
24 | AHCCSFRAEFV | 1.75 ± 0.096
25 | AHGNINFSLCDWHHIIQFSM | inactive
26 | AIRGMNAERNR | inactive
27 | AITGFNRKVDYLGSGECVEH | inactive
28 | AIVWPSYFIWFYSNESRKDR | inactive
29 | AKCMSNYYERCVLNTERREL | inactive
30 | AKQVGLY | inactive
31 | AKVKIWAWASIGCPPMQALV | inactive
32 | AKWSGFYYVLMYFFMLHLRY | inactive
33 | ALCSKGMGANSAKTK | inactive
34 | ALFKTYHLKGMFGKNWVLVV | inactive
35 | ALFTESF | inactive
36 | ALGCPGSQNLYFGSGSPAWS | inactive
37 | ALKSPDSD | inactive
38 | ALLCRMGRVRWPVSHEGNVC | inactive
39 | ALLTAYDRKNTNGYAGVRWN | inactive
40 | ALMGHE | inactive
41 | ALQFATVDGKVLSI | inactive
42 | ALSAYQGVFSYWCRWQWLVA | inactive
43 | ALVDILFLDLGLTLDLRVGL | inactive
44 | ALVSK | inactive
45 | AMIFAICCLNNQESVGVRRT | 2.49 ± 0.071
46 | ANDGAHFFIIQLECHAEEVR | -0.303 ± 0.39

Row | Substance | amyloid nucleation score
47 | ANELERYYVMCFW | 1.64 ± 0.099
48 | ANGLAGDYE | -0.578 ± 1.3
49 | ANHLPWEAVWTPRWGYGCSP | inactive
50 | ANKPWVNDIFPT | inactive
51 | ANKWESGSNALLDISVLMFW | inactive
52 | ANLIYPRLEFCISMCTQMAE | inactive
53 | ANPLAYLQSMSGTSGNT | inactive
54 | ANSYHWTVFVRMFSQDIVNI | inactive
55 | ANTGFLLSWNGFLLMCLELD | inactive
56 | ANTGMWLRMFPCWAPWDRVE | inactive
57 | APGIFPMSGMISYSLRV | inactive
58 | APNFCWSLFYVDSNVEFERL | inactive
59 | AQNSDHMSKATVH | inactive
60 | AQPVNMDKSWG | inactive
61 | AQRGIYWTTKVD | inactive
62 | AQSGVPRGAPGLAFDSVPHK | inactive
63 | AQSYSCFRNHFTDAVVCVFS | -0.496 ± 1.5
64 | ARFFVVGLWCVSIKIVPFFD | inactive
65 | ARIPEMLWFWVGTRKRGFII | 1.74 ± 0.11
66 | ARLAFGIGE | inactive
67 | ARLAYMYMEDGKCSTHRGKF | inactive
68 | ARLPFCAISLTRYGWFSCRC | inactive
69 | ARRNYHRAINFGGSCAIINK | inactive

Row | Substance | amyloid nucleation score
70 | ARSIFEVTRHEAAGRMSVFS | -0.01 ± 0.96
71 | ARVKWMVGEIWCQSDDKPLE | inactive
72 | ARYKGWTHNWPINHLIFLNS | -0.127 ± 1.1
73 | ASACPRLWVRLCLGCVIPKE | inactive
74 | ASATARHTPNIY | inactive
75 | ASDCWLFIGNAGSFTGKRSC | inactive
76 | ASEFKTSWWNV | -0.549 ± 0.68
77 | ASHDKGFYLGSCTYLYGLRL | inactive
78 | ASKALIWCLSRCIDLVVLRE | inactive
79 | ASLRLLVLVNSMWVGFFFNS | inactive
80 | ASMLLDKYFANLYELVLRVF | inactive
81 | ASNDDVG | inactive
82 | ASNEERLLFKCLLKV | -0.411 ± 0.73
83 | ASQAALFGKIHYEASY | inactive
84 | ASRGRRLCSLYTHEGGSS | inactive
85 | ASRKTFYAL | inactive
86 | ASTDEDFNTNTECT | inactive
87 | ASTQRMYMSLLVDGWVTIRL | inactive
88 | ASTTVGCVYYTLVLIG | 1.98 ± 0.09
89 | ASYRAVNVDTGRIWPEFQLG | inactive
90 | ASYYVKEFVQREHSIYAN | inactive
91 | ATFYSFLRFKQINNRNNEAF | inactive
92 | ATKYDFYMVNKRNFWKSRGF | inactive

Row | Substance | amyloid nucleation score
93 | ATLYNSVRLC | inactive
94 | ATRSLSDRPLEYCNNVDRKK | inactive
95 | ATYNEMYVVPSRASPKGDWD | inactive
96 | AVAHA | inactive
97 | AVFRLSSTISECDLHACAPV | inactive
98 | AVITSRVRWSLRNRRANISM | inactive
99 | AVRMICDSCAYSLPTWVDLA | -0.592 ± 1.4
100 | AVSLGVTRSKIRLASKVRVD | inactive
101 | AVTSLDVGFYV | inactive
102 | AVVRDDLVSCPPSAATLQIP | inactive
103 | AWVHNSVRRHSSPSPRLGGM | inactive
104 | AWYSDCRCVKPHVGRGNWCM | inactive
105 | AYALALCLRE | inactive
106 | AYEIQWIWPNAASTVKSVLA | inactive
107 | AYFDLWLM | inactive
108 | AYFLKEVNYMVKIYNLECRV | inactive
109 | AYFLLCHHFTKRSWARGWR | 0.314 ± 0.46
110 | AYIIN | -0.363 ± 0.82
111 | AYKNRSFFLVVVITYNRVMP | inactive
112 | AYMCCYDAYTPRRSRCDWYI | -0.402 ± 1.1
113 | AYMLGITQNNGNHLNSSRRR | inactive
114 | AYNGK | inactive
115 | AYPARLTIASEFKIMAHYGM | 1.36 ± 0.15

Row | Substance | amyloid nucleation score
116 | AYRINRTTDRIIIDSGDVVV | inactive
117 | CADGSSFRETPSNFTHPNIL | inactive
118 | CADQWS | inactive
119 | CADVTTTHGGLYVGPSSTAT | inactive
120 | CAESFHIAASG | inactive
121 | CAFVDSISCLPLFR | inactive
122 | CATIILSCILSL | 1.14 ± 0.13
123 | CAYDINYLCSREWVSNSCWG | inactive
124 | CCNYFLNIIYVVQV | 3.14 ± 0.058
125 | CCSKFHAQN | inactive
126 | CDHYRISWNLKWLVVRMYY | inactive
127 | CDIHLRIY | inactive
128 | CDIRAAGSKLTDYPLSTRAS | inactive
129 | CDVHL | inactive
130 | CEFTAPVICLISLCYVGRSR | 1.09 ± 0.094
131 | CELVAQFPKFFAFYIFYDDT | inactive
132 | CENYRMGYRNVRVSFAPPFK | inactive
133 | CEWNERRRDGSSRNFDLLSQ | -0.045 ± 1.1
134 | CFCYSLDSLLQVGNNS | inactive
135 | CFETCLSAVGHSIQAQKLSG | 0.193 ± 0.29
136 | CFIMLWCTISFIILVSLVTD | 0.671 ± 0.3
137 | CFKFWWGIRENFKFLGDVMR | inactive
138 | CFKSIITMNFYINWYFVSSP | inactive

Row | Substance | amyloid nucleation score
139 | CFLGVSNMHIGWFGVR | 0.838 ± 0.12
140 | CFLSWWLRDLVLSSCSTYVD | inactive
141 | CFMLSDGHTCFVLMSGWFSS | inactive
142 | CFMTS | inactive
143 | CFNRITDC | inactive
144 | CFPASCIQ | inactive
145 | CFYLDQSRFRSA | inactive
146 | CFYMTSSDYQEGNG | inactive
147 | CFYVSLCGV | 0.259 ± 0.49
148 | CGCYSLMFFSMTCNEKLLSL | inactive
149 | CGFAHFRNVALGWWYGVTLN | inactive
150 | CGGAMMKN | inactive
151 | CGMCLGLLHR | 0.898 ± 0.21
152 | CGPHTSYRTMIVLNIRYNFY | 1.46 ± 0.099
153 | CGRRYGTGAPRCL | inactive
154 | CHEKANQELRHPYGCECVFV | inactive
155 | CHFIRGESSRTKLGLEHTN | inactive
156 | CHISFWLTLWGRSNSEMWMD | inactive
157 | CHSFIMIYVVMMDIS | 0.103 ± 0.55
158 | CHSRTDKNSFC | inactive
159 | CHWNYTKIRHFYEVVGDQTG | inactive
160 | CHYNFPVPAVKILRGQRNVA | inactive
